Source: publication PMC8850444, “The lipid components of high-density lipoproteins (HDL) are essential for the binding and transportation of antimicrobial peptides in human serum” (Scientific Reports, 2022)

Target: the molecule itself
Assay: non-reducing SDS-PAGE; serum proteins pulled down by immobilised LL37, 15% non-reducing SDS-PAGE, Coomassie; monomer to dimer

B1: apolipoprotein A-II (Apo-AII) of human serum (natural protein)
chain: not shown
notes: Dimeric under non-reducing conditions; In serum it stands in HDL particles together with lipids; also called 17 kDa protein; source: endogenous, crude human serum
stoichiometry N: 2
